Values of other authors in paper PMC3784502.

Target: APC 15-aa repeat region (Homo sapiens) (UniProt P25054)
Sequence of UniProt P25054 (P25054 1020-1169): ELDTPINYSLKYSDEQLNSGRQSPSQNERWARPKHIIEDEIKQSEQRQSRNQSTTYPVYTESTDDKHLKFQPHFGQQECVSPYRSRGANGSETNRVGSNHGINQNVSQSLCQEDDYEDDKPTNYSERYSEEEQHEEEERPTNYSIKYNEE

## β-catenin ARM repeats 5-9 (from UniProt P35222)
  Kd: 273 nM
